The data set concerns the target LRP6 (recombinant human LRP-6, Fc chimera) (Homo sapiens, UniProt O75581 20-1370). As to the kind of experiment: SPR; CE-LIF: incubation pH 8.0, 0.155% glutathione, 0.395% Tris-HCl; running buffer 50 mM borate pH 7.6, 20 kV, 25 C (CE-SELEX conditions). SPR: PBST pH 7.4, 0.05% Tween-20, 25 C, protein amine-coupled on CM5. AuNP: room temperature, then 0.9 M NaCl. The note with it: protein: commercial; tags: Fc chimera; chain copies: 2. Background: Surface plasmon resonance follows binding to a sensor surface in real time, without labels.

LRP6 (recombinant human LRP-6, Fc chimera), sequence (O75581 20-1370, change not shown): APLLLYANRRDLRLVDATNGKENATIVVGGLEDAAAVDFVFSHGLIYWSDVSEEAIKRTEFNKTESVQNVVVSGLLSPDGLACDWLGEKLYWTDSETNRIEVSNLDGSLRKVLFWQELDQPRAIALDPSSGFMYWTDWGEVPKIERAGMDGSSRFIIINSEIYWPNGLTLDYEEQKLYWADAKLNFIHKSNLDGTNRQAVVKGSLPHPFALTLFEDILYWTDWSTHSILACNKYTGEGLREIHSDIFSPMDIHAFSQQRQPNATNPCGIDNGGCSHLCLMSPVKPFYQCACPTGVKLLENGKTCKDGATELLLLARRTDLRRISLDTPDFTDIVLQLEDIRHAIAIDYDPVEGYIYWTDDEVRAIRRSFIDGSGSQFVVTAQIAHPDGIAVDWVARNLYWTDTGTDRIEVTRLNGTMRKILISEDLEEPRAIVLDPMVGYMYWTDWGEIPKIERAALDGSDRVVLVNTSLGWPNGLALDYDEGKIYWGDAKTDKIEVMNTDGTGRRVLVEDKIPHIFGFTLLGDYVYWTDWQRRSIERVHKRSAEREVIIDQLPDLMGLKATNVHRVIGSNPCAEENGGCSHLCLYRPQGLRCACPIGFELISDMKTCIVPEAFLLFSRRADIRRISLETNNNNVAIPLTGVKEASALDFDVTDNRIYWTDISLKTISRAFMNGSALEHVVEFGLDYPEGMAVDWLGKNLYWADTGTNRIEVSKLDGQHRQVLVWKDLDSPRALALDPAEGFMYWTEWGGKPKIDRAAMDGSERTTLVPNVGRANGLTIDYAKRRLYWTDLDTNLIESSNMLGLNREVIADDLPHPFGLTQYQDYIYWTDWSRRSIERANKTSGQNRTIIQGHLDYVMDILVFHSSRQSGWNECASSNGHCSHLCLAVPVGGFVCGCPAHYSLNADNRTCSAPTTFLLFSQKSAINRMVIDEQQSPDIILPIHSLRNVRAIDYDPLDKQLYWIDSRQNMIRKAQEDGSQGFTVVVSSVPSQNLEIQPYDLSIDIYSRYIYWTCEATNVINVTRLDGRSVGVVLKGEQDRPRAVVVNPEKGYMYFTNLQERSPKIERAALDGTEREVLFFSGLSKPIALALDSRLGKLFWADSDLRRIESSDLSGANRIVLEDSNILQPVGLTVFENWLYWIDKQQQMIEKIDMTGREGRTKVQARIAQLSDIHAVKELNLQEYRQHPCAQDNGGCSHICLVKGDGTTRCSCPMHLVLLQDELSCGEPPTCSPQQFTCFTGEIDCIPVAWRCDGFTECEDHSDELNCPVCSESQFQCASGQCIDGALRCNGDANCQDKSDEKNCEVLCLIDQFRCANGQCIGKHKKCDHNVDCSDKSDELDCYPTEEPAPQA

B1: MutLRP6-A3 (ssDNA)
DNA: AGCAGCACAGAGGTTATTTGGCAGCTAAGCAGGCGGCTCACAAAACCATTCGCATGCGGCCCTATGCGTGCTTTTGTGAA
As a reminder, the Kd is the concentration at which binding is half-saturated. Consider B1, for which the Kd was 2680 nM.

B2: MutLRP6-A2 (ssDNA)
DNA: AGCAGCACTTAGGTCAGATGGCCACATTAGTCTCACCACTACCTTTTTTCCTACCGCCGCCCTATGCGTGCTACCGTGAA
In the case of B2, the binding result was “no binding”.

Values taken from publication PMC10180154, “Screening and Identification of ssDNA Aptamers for Low-Density Lipoprotein (LDL) Receptor-Related Protein 6”.
